We go through one molecule from PMC9709061.

The experiment has as its target HSP90–CDC37–BRAF^V600E complex (human) (UniProt P08238). As to the kind of experiment: cryo-EM structure; HSP90–CDC37–BRAF^V600E complex incubated with PP5 D274N, purified by SEC, cross-linked with 1 mM BS3; one sample gave three classes: HCK (3.4 Å), HCK-P open (4.2 Å), HCK-P closed (3.9 Å); PP5 modelled by rigid-body docking. In general terms: Size exclusion chromatography separates by hydrodynamic size, large species first.

Sequence of HSP90–CDC37–BRAF^V600E complex (human) (P08238 whole entry, chain 1 of 3): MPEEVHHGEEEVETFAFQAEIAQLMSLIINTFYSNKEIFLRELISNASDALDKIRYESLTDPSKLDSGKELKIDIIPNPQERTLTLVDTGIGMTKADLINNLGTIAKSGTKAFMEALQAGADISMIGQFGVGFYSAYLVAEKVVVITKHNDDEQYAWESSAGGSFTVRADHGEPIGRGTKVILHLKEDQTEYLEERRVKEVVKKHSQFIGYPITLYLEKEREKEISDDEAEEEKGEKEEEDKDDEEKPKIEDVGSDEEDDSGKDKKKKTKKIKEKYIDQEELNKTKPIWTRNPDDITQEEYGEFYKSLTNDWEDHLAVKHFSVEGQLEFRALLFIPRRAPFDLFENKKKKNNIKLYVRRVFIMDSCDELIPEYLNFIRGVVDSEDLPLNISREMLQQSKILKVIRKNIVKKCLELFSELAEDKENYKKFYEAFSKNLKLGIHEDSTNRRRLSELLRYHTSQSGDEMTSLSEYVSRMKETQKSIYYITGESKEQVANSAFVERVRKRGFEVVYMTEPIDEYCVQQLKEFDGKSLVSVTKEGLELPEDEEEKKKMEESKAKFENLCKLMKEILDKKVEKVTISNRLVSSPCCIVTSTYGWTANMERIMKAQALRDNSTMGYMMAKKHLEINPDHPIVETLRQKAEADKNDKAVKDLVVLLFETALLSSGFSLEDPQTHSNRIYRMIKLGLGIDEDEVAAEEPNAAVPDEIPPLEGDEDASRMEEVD
Sequence of HSP90–CDC37–BRAF^V600E complex (human) (Q16543 whole entry, chain 2 of 3, further chain): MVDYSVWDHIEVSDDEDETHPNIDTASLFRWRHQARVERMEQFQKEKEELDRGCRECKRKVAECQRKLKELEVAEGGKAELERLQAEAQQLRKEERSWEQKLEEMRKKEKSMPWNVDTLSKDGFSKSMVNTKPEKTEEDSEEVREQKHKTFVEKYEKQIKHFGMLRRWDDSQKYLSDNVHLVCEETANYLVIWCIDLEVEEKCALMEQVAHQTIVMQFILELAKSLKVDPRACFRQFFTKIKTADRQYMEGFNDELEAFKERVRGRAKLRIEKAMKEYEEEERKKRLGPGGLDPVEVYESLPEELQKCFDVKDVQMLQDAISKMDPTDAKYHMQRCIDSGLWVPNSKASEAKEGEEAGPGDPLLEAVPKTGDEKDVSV
Sequence of HSP90–CDC37–BRAF^V600E complex (human) (P15056 whole entry V600E, chain 3 of 3, further chain): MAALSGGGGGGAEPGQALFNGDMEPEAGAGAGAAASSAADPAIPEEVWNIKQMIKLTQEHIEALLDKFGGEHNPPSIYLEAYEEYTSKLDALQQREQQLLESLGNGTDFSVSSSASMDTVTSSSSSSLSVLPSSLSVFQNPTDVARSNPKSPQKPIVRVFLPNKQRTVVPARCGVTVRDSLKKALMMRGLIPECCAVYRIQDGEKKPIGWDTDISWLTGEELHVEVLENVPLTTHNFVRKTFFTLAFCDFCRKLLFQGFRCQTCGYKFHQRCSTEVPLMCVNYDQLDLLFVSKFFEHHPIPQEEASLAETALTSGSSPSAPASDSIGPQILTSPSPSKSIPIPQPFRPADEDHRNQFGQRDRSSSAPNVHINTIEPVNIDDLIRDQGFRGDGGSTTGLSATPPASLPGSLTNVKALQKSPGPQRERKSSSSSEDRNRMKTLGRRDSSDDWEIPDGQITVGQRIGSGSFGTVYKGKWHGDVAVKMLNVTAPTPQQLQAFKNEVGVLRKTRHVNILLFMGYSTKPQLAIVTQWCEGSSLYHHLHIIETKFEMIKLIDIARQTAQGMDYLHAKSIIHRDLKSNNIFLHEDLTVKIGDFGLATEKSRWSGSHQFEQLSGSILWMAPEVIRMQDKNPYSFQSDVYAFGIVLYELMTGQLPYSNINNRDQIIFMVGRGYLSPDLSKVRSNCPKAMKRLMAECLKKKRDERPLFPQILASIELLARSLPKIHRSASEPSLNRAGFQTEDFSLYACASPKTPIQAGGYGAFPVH

B1: PP5 D274N (enzyme)
chain: RDEPPADGALKRAEELKTQANDYFKAKDYENAIKFYSQAIELNPSNAIYYGNRSLAYLRTECYGYALGDATRAIELDKKYIKGYYRRAASNMALGKFRAALRDYETVVKVKPHDKDAKMKYQECNKIVKQKAFERAIAGDEHKRSVVDSLDIESMTIEDEYSGPKLEDGKVTISFMKELMQWYKDQKKLHRKCAYQILVQVKEVLSKLSTLVETTLKETEKITVCGDTHGQFYDLLNIFELNGLPSETNPYIFNGDFVNRGSFSVEVILTLFGFKLLYPDHFHLLRGNHETDNMNQIYGFEGEVKAKYTAQMYELFSEVFEWLPLAQCINGKVLIMHGGLFSEDGVTLDDIRKIERNRQPPDSGPMCDLLWSDPQPQNGRSISKRGVSCQFGPDVTKAFLEENNLDYIIRSHEVKAEGYEVAHGGRCVTVFSAPNYCDQMGNKASYIHLQGSDLRPQFHQFTAVPHPNVKPMAYANTLLQLGMM
What is called stoichiometry N is the number of molecules, sites or subunits per partner or assembly. Take B1: the stoichiometry N was 1.
